Test results: patent US20180155451A1 (published 2018)
Residue numbers refer to the chain shown, from its start. Names and notes keep the numbering of the source. Where two headings read alike, the source gives them in different places. Values belong to the binder of their own block, whether it stands above or below them.

Assays:
Test in all cases: SPR (Biacore), antibody captured on chip, FcgR extracellular domain as analyte
[1] = biological target: T1, FcgRIa (human, UniProt P12314 16-292)
T1 construct: extracellular domain; Expressed in FreeStyle293 cells and purified; used as analyte in Biacore; also called FcγRIa; FcγRI; not shown: His tag attached to the C terminus
T1 sequence (P12314 16-292): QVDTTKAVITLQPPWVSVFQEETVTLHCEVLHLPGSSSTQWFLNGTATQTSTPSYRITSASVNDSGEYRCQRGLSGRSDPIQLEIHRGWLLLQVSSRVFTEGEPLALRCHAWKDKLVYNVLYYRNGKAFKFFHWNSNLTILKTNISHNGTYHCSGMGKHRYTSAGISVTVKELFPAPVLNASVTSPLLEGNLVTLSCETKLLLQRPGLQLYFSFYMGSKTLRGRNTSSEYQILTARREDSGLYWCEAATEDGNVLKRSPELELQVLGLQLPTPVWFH

[2] = biological target: T2, FcgRIIa R (human, UniProt P12318 34-217)
T2 construct: extracellular domain; also called FcγRIIa R; FcγRIIa type R; not shown: His tag attached to the C terminus
T2 sequence (looked up): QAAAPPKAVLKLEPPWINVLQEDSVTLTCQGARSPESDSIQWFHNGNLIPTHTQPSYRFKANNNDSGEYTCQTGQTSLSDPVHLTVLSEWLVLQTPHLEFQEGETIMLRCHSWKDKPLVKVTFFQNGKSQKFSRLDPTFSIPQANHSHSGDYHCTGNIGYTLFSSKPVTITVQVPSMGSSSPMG

[3] = biological target: T3, FcgRIIa H (human, UniProt P12318 34-217)
T3 construct: extracellular domain; also called FcγRIIa H; FcγRIIa type H; not shown: His tag attached to the C terminus
T3 sequence (looked up): T2 sequence (looked up) with R134H

[4] = biological target: T4, FcgRIIb (human, UniProt P31994 43-217)
T4 construct: extracellular domain; Expressed in FreeStyle293 cells and purified; used as analyte in Biacore; also called FcγRIIb; CD32B; not shown: His tag attached to the C terminus
T4 sequence (looked up): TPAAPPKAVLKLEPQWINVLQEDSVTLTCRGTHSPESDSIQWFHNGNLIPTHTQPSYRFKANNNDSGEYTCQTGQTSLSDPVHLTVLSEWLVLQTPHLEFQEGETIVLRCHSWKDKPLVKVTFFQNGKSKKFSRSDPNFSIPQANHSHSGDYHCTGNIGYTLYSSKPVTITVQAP

[5] = biological target: T5, FcgRIIIa F (human, UniProt P08637 17-208)
T5 construct: extracellular domain; also called FcγRIIIa F; not shown: His tag attached to the C terminus
T5 sequence (P08637 17-208): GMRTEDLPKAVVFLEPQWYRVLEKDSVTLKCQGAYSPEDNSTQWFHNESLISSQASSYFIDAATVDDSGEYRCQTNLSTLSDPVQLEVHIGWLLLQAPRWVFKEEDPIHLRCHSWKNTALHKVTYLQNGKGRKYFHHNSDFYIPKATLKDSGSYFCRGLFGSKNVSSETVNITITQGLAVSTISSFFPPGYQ

[6] = biological target: T6, FcgRIIIa V (human, UniProt P08637 17-208)
T6 construct: extracellular domain; also called FcγRIIIa V; not shown: His tag attached to the C terminus
T6 sequence (P08637 17-208 F176V limits assumed): as the sequence (P08637 17-208) above, with F160V counted along it

[7] = biological target: T1, FcgRIa; remark: listed apart in the source
Method: (§1) H240-Kn113 (SEQ ID NO: 92) resulting from introduction of Y234E and Y235N into H240-Kn072, H240-Kn115 (SEQ ID NO: 93) resulting from introduction of S239M into H240-Kn072, and H240-Kn125 (SEQ ID NO: 94) resulting from introduction of Y235Q and S239M into H240-Kn072 were prepared according to the method described in Reference Example 1.
(§2) Analysis of interaction between obj ective antibody and the FcγR was carried out using Biacore T100 (GE Healthcare), Biacore T200, Biacore A100, and Biacore 4000. HBS-EP+ (GE Healthcare) was used as the running buffer, and the measurement temperature was set to 25° C. Chips produced by immobilizing the antigen peptide by the amine coupling method to a Series S sensor Chip CM5 (GE Healthcare), chips produced by allowing preliminarily biotinylated antigen peptides to interact with and immobilize onto a Series S Sensor Chip SA (certified) (GE Healthcare), chips produced by immobilizing Protein L (ACTIGEN, BioVision) to Series S Sencor Chip CM5 (GE Healthcare), or chips produced by immobilizing Protein A/G (Thermo Scientific) to Series S Sencor Chip CM5 (GE Healthcare) were used. Antibodies of interest were captured onto these chips, and allowed to interact to each FcγR diluted with running buffer. To regenerate and repeatedly use the chip, the antibodies captured onto the chip were washed off by reacting 10 mM glycine-HCl, pH 1.5.

[8] = biological target: T2, FcgRIIa R; remark: listed apart in the source
Method: as §1, §2

[9] = biological target: T3, FcgRIIa H; remark: listed apart in the source
Method: as §1, §2

[10] = biological target: T4, FcgRIIb; remark: listed apart in the source
Method: as §1, §2

[11] = biological target: T5, FcgRIIIa F; remark: listed apart in the source
Method: as §1, §2

[12] = biological target: T6, FcgRIIIa V; remark: listed apart in the source
Method: as §1, §2

[13] = biological target: T1, FcgRIa; remark: listed apart in the source
Method: (§3) Specifically, H240-Kn120 (SEQ ID NO: 99) resulting from introduction of S239M into H240-Kn067 and H240-Kn126 (SEQ ID NO: 100) resulting from introduction of Y235Q into H240-Kn120 were prepared according to the method described in Reference Example 1. […] Those described above were assayed for the binding to each FcgR according to the method described in Reference Example 8.
as §2

[14] = biological target: T2, FcgRIIa R; remark: listed apart in the source
Method: as §3, §2

[15] = biological target: T3, FcgRIIa H; remark: listed apart in the source
Method: as §3, §2

[16] = biological target: T4, FcgRIIb; remark: listed apart in the source
Method: as §3, §2

[17] = biological target: T5, FcgRIIIa F; remark: listed apart in the source
Method: as §3, §2

[18] = biological target: T6, FcgRIIIa V; remark: listed apart in the source
Method: as §3, §2

Kd [1]: 0.25 nM
Kd [2]: 1000 nM
Kd [3]: 930 nM
Kd [4]: 4.2 µM
Kd [5]: 2600 nM
Kd [6]: 390 nM
Kd [7]: 0.25 nM
Kd [8]: 1000 nM
Kd [9]: 930 nM
Kd [10]: 4.2 µM
Kd [11]: 2600 nM
Kd [12]: 390 nM
Kd [13]: 0.25 nM
Kd [14]: 1000 nM
Kd [15]: 930 nM
Kd [16]: 4200 nM
Kd [17]: 2600 nM
Kd [18]: 390 nM
B1: H240-Kn033/H240-Hl033/L73-k0 (antibody, human IgG1, kappa)
heavy 1: not shown
heavy 2: not shown
light: DIQMTQSPSSLSASVGDRVTITCRASQDIHKYIAWYQQKPGQAPRLLIQYTSTLQPGVPSRFSGSGSGTDYTFTISSLQPEDIATYYCLQYEQLRTFGGGTKVEIKRTVAAPSVFIFPPSDEQLKSGTASVVCLLNNFYPREAKVQWKVDNALQSGNSQESVTEQDSKDSTYSLSSTLTLSKADYEKHKVYACEVTHQGLSSPVTKSFNRGEC
notes: Anti-epiregulin (EREG) IgG1 control with knobs-into-holes alterations only (Y349C/T366W in the knob chain; D356C/T366S/L368A/Y407V in the hole chain); also called H240-Kn033/H240-HI033/L73-k0

Kd [1]: 0.073 nM
Kd [2]: 340 nM
Kd [3]: 690 nM
Kd [4]: 0.63 µM
Kd [5]: 9.1 nM
Kd [6]: 3.1 nM
Kd [7]: 0.073 nM
Kd [8]: 340 nM
Kd [9]: 690 nM
Kd [10]: 0.63 µM
Kd [11]: 9.1 nM
Kd [12]: 3.1 nM
Kd [13]: 0.073 nM
Kd [14]: 340 nM
Kd [15]: 690 nM
Kd [16]: 630 nM
Kd [17]: 9.1 nM
Kd [18]: 3.1 nM
B2: H240-Kn032/H240-Hl032/L73-k0 (antibody, human IgG1, kappa)
heavy 1: QDQLVQSGAEVKKPGASVKVSCKASGFNIKDTYIQWVRQAPGQGLEWMGRIDPLRKQTKYREKFEGRVTITADTSTNTAYMELSSLRSEDTAVYYCVRSGREFDYWGQGTLVTVSSASTKGPSVFPLAPSSKSTSGGTAALGCLVKDYFPEPVTVSWNSGALTSGVHTFPAVLQSSGLYSLSSVVTVPSSSLGTQTYICNVNHKPSNTKVDKKVEPKSCDKTHTCPPCPAPELLGGPDVFLFPPKPKDTLMISRTPEVTCVVVDVSHEDPEVKFNWYVDGVEVHNAKTKPREEQYNSTYRVVSVLTVLHQDWLNGKEYKCKVSNKALPLPEEKTISKAKGQPREPQVCTLPPSRDELTKNQVSLWCLVKGFYPSDIAVEWESNGQPENNYKTTPPVLDSDGSFFLYSKLTVDKSRWQQGNVFSCSVMHEALHNHYTQKSLSLSP
heavy 2: B2 heavy 1 with C348Y, D355C, W365S, L367A, Y406V
light: B1 light
notes: Anti-EREG IgG1 called homodimerized: S239D/A330L/I332E in both H chains, on the knobs-into-holes pair Kn033/Hl033

Kd [1]: 0.1 nM
Kd [2]: 710 nM
Kd [3]: 130 nM
Kd [4]: 5.7 µM
Kd [5]: 2.6 nM
Kd [6]: 1 nM
Kd [7]: 0.1 nM
Kd [8]: 710 nM
Kd [9]: 130 nM
Kd [10]: 5.7 µM
Kd [11]: 2.6 nM
Kd [12]: 1 nM
B3: H240-Kn072/H240-Hl076/L73-k0 (antibody, human IgG1, kappa)
heavy 1: B2 heavy 1 with L233Y, L234Y, G235W, D238S, H267D, D269E, S297A, L329A, E331I
heavy 2: QDQLVQSGAEVKKPGASVKVSCKASGFNIKDTYIQWVRQAPGQGLEWMGRIDPLRKQTKYREKFEGRVTITADTSTNTAYMELSSLRSEDTAVYYCVRSGREFDYWGQGTLVTVSSASTKGPSVFPLAPSSKSTSGGTAALGCLVKDYFPEPVTVSWNSGALTSGVHTFPAVLQSSGLYSLSSVVTVPSSSLGTQTYICNVNHKPSNTKVDKKVEPKSCDKTHTCPPCPAPELLGGPSVFLFPPKPKDTLMISRTPEVTCVVVDVSHEEPEVKFNWYVDGVEVHNAKTKPREEQYNSTYRVVSVLTVLHQDWLNGKEYKCKVSNDALPMPIEETISKAKGQPREPQVYTLPPSRCELTKNQVSLSCAVKGFYPSDIAVEWESNGQPENNYKTTPPVLDSDGSFFLVSKLTVDKSRWQQGNVFSCSVMHEALHNHYTQKSLSLSP
light: B1 light
notes: Heterodimerized anti-EREG IgG1: D270E introduced into both H chains of H240-Kn061/H240-Hl071/L73-k0
